# Assay: soluble on expression in E. coli; label from the status in PepcDB or PDB records
row,Sequence,soluble on expression in E. coli
1,MGSDKIHHHHHHMNVTLRQLQAFIAVAELGRFHLAADHLGLTQSAISILIKDLEVALKHRLFDRHTRMVSLTTAGAEFLPQARKIMSDLEIAVANVHELASLQRGRVTIAAAIVLAATLLPPVIARFVKRYPDISVQVRDMPEEEIRSALKRNEADLGIGTVSADDPEIQASVLMRDQLTLICRSDHRFAKARQVSWASLAGEGVIGLAKDNPLRGLVDRALIASGVEVKTRYEVRFSTTAISMVAEGLGIAILPENSRQLTTNVDVRIVELVDPVISRNISILQYRQPMLSPAAAKMKEFLMGASRKLS,not soluble
2,MSLNIKKAAELSGIKTDNIRYYERIGLIPKITRTESGIRNFTEANIRTLKFVKHMRDAGVQVEPLTRYMALVNEGNPETKEERIEILKNQVEQLRTEIIEKQSALDYLTFKIENYDEVMLPNEINLNQSSKETIKEGHHHHHH,soluble
3,MADLPISLLQTLAYKQPLGRNSRIVHFTDGALFPVVAFGDNHSTSELYIAVRGDHRDLMSPDVRDSYALTGDDHKVWGATHHTYYVEGAPKKPLKFNVKTRTDLTILPVADVFWRADGSADVDVVWNDMPAVAGQSSSIALALASSLPFVPKAAYTGCLSGTNVQPVQFGNLKARAAHKIGLPLVGMTQDGGEDTRICTLDDAADHAFDSMESTVTR,soluble
4,MEIEDGFYLIDDSNHDEDLDFSDFPWLDPDHPLFFPATQANNSKGSTRWDAVNKFSVENWYPHLRKHTFKSHFITLNYNDIHYLMGNIPPDYDSSKLESIFNKILSEFNNKEVFMRLSTRSPKDSKFLFEEASTIMSKDFVYWNENDNKHQQLVSFVASMLKAMKIKSGRKIIETIAQSPRVYNDLLALVSSSNQSDCTTNVILREWHDIRPDHEFRVFVSRRHRKESIVTAISQYFHFLYFDKSPADCFNFLDEEDKKAVIKKFENYVLKSVDPDVAKFLNFSSEQDDDESSDCIREYIVDLALIPVSQYHGEITDENIIEIGANTYVMVVIELNPFAPAATGSGLEHHHHHH,not soluble
5,MGSDKIHHHHHHMVENYNFSGVPMRLDDLTYMNPWWEGREDYHVRRWKEQRLHWKPGWLEKLSLKPFSLNFVLGPRQVGKTTGIKLLIQELLKDNPPESILYINVKVLPGHRELLNLLREFQELKEKEGVKTGYIFLDEVTSLEGWWRGVKPLIDAGLLKNDVVTVTGSSSLGVRRDIELFPGRRGSGKTIEVMPLSFPEYVEVMGLKKPELYREKVLKLFEDYLTTGGFPTSINGLPMEDLLGAYIGEIVRFGKSLEIAKETLSALIRSAPSATSFRALAGITSGYSYKVVQDYIELFTELYVLGIAYLKQGNQVLYKREKKFFFRDPLLARLFALWSGTELKEDALYEWVVQEHLYRRFGEVYYYRNSYEIDAIAGDLKVEVKAGKTHRRYPKNVRVLEKEDVPFFLLELTHESTSRF,not soluble
6,MQKPSIPKGMRDFSPVEMSRRNYIFDTIREVYELFGFNQIETPTMEMLSTLMGKYGEEGDRLLFKVLNSGDVLADFCAEELAEKNSLRFAAKACEKGLRYDLTVPFARYVVMHRNEINFPFKRYQIQPVWRADRPQKGRYREFYQCDGDVIGSDSLMNEVELIQIISEVFRRLGIRTRILLNNRKILSGIAEVVDEADRLTDITVAIDKLDKIGLDKVNDELRTKGFGEEAIERLRPFIEMKGDNREKLDRLKSALASSETGLKGIEELTYILDKVERVQLHSELMVDISLARGLSYYTGAILEVKALDAEMGSITGGGRYDNLTGIFGLEGMSGVGISFGADRIYDVMMQLDLFPAEKLTGTQLLFVNFSEEDADSLLPLIQKLREQGLRTELYPEPAKIKKQMSYANAANIPYVALVGENERAAGQVNLKNMLTGEQQMLPADAATIVAAIV,not soluble
7,SSLRLPSAAELSGQWVLSGAEQHCDIRLNTDVLDGTTWKLAGDTACLQKLLPEAPVGWRPTPDGLTLTQADGSAVAFFSRNRDRYEHKLVDGSVRTLKKKA,soluble
8,MGSDKIHHHHHHMSIPIIDLSQFQISNQVRRQNVVKNIYQACHEIGFMYIQNSGISPDLLEQVFSASKSFFDSPLAVKEQLAWNNEFINTGYVGLEREHLNPNQPGDLKEAFNIKNDIIINNFSSPILLTNNPVISTFYNACTELANTVLQAFALALELPEYFFTTRHNQKNHTLRLLHYPPLQTSPKPGQVRAGEHSDYGSLTLLFQHAVGGLEVQTTRKEWIAAPLIPGMVLVNTGDLMQRWTNHIFCSTKHRVMIPNDERVKKSRYSIAFFCHPNDDTEIACLESCSQRQSPIYPPILAGEYLLSSLQLTY,not soluble
9,MGRGVYTLALRGLAPLIWLWMWRRARRAGGQWELFAPARFGRAGARAPAPLAAPVWVHAVSLGETRAAQPLVQALLERGLPVLLTHTTATGRAEGERLFGAAIGRGQLQQAWLPYDFPGATRRFLARHAPRCGLLIEREVWPNLLAAARAQGVPMALVSARFSASSLRQAGWLGQALREALAGLGRVLAQTDEDGARLCQAGANAYTVTGSLKFDVALPEAQLRVGHAWAGATGRPVIALASTREGEDAMFIEAIGALQAHRAATPRPLILLIPRHPQRFDEAAAQLQAAGLAYARRSAGSGEPGPHIDVLLGDTLGEMPFYYAAADVAIVGGSFARLGGQNLIEACAAGTPVIVGPHTFNFKDAARDAIAAGAALRAPDARTALDWALQLLAEPARRQAMSEAARAWTAAHAGATRRTLDALEDWLAPRLEHHHHHH,soluble
10,MANDEEFFIVRCRGPSSYRESVYKYLTGQPSDWNRNSVFLRNMHVGRAKNVKEIFNCILQTQPLPVVQPCHPVRQPRESFYSSHEHDPMDEVLLQEVKEEAHSLAFKGIPIETKGPTPSSTIMNPEVTLRDVLTFHKNIKRRPQETKPAKFDFSAMPSTSRLPPTSPKRYRQFAPPPISMKQSPKICAKTVSCPSTSEVKSPPKKMIIQKIQKHQEAPKPAKVPKIKGEKKKKDGRQDEQEEIDIELKLSKSTVSSQTLKRHNISFERKPQRGI,not soluble
11,MSLEKAARHKQEVDTVQDKKVVNITGQGSTSRFFLPTALIRLRDASAQSIRTVLNQFFDRADDALFELADRAGTDQEQTRYFDAMRELRLRRKSMTVAVLHHVGQAFNDIGKFRPQSTVSSLDSVDEGFLSLLDHAELEQQVAIDNMVTKLRYQYSEALRHLSLRVRHLLPGVTLEDDQMPLCPEVLCGGLAAASKDLDVDIKARLIVLKLFDQLLVTSLGEVYHGANVTLIKEGVLPDSKAVRPVQTARSRQGAPVPPPSVVYREADWYGVGQPQAEVSAATFSQLSALLRQGQPAYGDGQAPASGGQWLQTDALLARLSQVQTAFGNDPGAPLVSLSQQLQPVLQNSSGQSLRPGQVDNDVINLVAMLFEFILDDRHLHSVMKSLLGRLQIPILKVALTDKNFFNRGGHPARKLLNEMALAATGWTEKRPGQRDPLLDKISAVVNRILAEFSTDVSLFNELLDDFNQFSDLDQRRSDLVEQRLRDAEEGRARHEQATADTKELLHEAMDGRLLPEPVQDMLNGPWSHYLHWLALHESTDSEAWQRAKTLTEQLIWTIDPVPLTATTHELLQQAIPQVIEQLRGALEGVAWDGLSVEMVVRDLELVHLDVFQRLVIAPSEAAGNDHAQIDDSQEAPAVRADAVPSDTTNTSADVSHPAPALPVAADDPKEAVVARVPEPTRAQPVVAEEWLAKADGLRVGCWLELNRDGSQIRCKLAAFIRAVDKYIFVNRSGAKVAEYRRNELAEMMAQGHIEILDDGLIFDRALESIIDNLRTSRREGHHHHHH,not soluble
12,MGSDKIHHHHHHMTQRHSRILLFVVNTPEFFLSHRLPIAIAAHKAGYEVHVASAEGDGVQAVLAHGFVHHSIGFARSGQNPWVEFRTLVSLVQVMRRVQPDIVHLITIKPVLYGGIAARLVRVPAVVSAVSGLGTVFLAHTWATRLRRWFIIELYKAAFKQRSLAVIFQNPDDRDTLISSGAIQSGDTRMIRGSGVSLDDYPCVTEPEGKPVAVMAARLLRNKGVVEFVGAARILRDRGVDVDMRLIGSPDLDNPASVTELELERWKSESVVTLMGYRKDIAHQYASSNIVCLPSYYGEGLPKSLVEAAACGRAVVTTDHPGCRDAILPDETGVLIPIKDSVALANAIQRLIENPDLRRKMGKAGRELAEEAFSIDQIVEQHLKIYDEVMATVRNGSLRQ,not soluble
13,GPGSMSMQQDFVHPRQLDDMRAIHAAINSFSGVMTKMMMLMKELGTTLEQVSHSFDALTSLTFTKDEVKQYVHKFGEEIISMKEGIAFCEYNKLVHEDVLHPVEQLKKSLKEAEQAAKAEKSAFEKYKKAKQRVDKQEKAFAEKSKPLDTSKSYPTHVQARNNALVSLQNCKSEFEERFVMLMNDVESVTSTALRRYLELNAGYMTSVVDALTKTDPTVGEAAVFYRQEKQAHRQSAVEQCCLQVNSDLSTAHASQGYRFDPSRMNGCLHDTIIFKRLPSRLRHSTGSRTRSLRVNRPAVE,soluble
14,MSDSQEQLISSENTEVDKQAEEDRKLRRLNRRKALALERSPLPVPKLGRVLLSANSTIDLTNEDDDPSNKWFKKTFNAEKIPKLAKSPEEAKLFAVPRKISKNAPKSLLTSETLKKKLQASMSAKRRKEQEQRRKMYEEDNEHLKAGSDEEEEEDVVFKKKKGKKPVNEEEYKSEDDEDYEPENSGEEDSDEKNNGRADDEMSVNLLNDSFTYDVFNNVKRSGPGSTVSNFDSRSEADVVEKNGVVQLPTMTEITGGSNDILNLCPGSFGVSQSAGFPDTLQMLIEEDTTERKINLPQNSTSVSSDKPRLEESESEDEDDVGVKRRLPAVKNHRVLDSDEEDDVIEETLPSQDVFGSGTLEDSETIKEICEKSGEFTEKIETVLEEKTELKRVVLSDGEDSDEEAEEAEEEGDDEEEPEEDDIESENDEAETEGVEAPDPNFDDEDDELAILKRLQHQEYKQKIKKRTLFDDEASLSGDDVGSDLEDEEGMENVYEAEEGDADDVPDNDTIRRQNHKLLLKQENDKEQRELAKLQDRLLADGDLGGVETNRQFRFKLREEVQIQMGDDVDGNDGDGEDDEPEEDEQKKKERAEMIKFKYEHAEELMLLDEPKQGDDMFARAGKLFKKTEKTVIEFSEETMFKPRLSKPSLLSKTTLAVTFQEVLNGPGGAAKQMYVQSFEKPTPLSTGHISSPSSRLSTGKRLLKSPESSASAKRVRSSKLSSLE,not soluble
15,NMRQVLKTDRLVLEPQSMARFDQWFAMERQRDEAGHRDLTEDQAWLRLCARQGMWDAYACGFYYLLDPVSGEMRGEAGFQFRRRGFGPGFDNHPEAAWAVASAHQGRGLAAEAMQALLAHHDRSSGRQRVVALIARSNLPSLRLAERLG,not soluble
16,SWQSYVDDHLMCDVEGNHLTAAAILGQDGSVWAQSAKFPQLKPQEIDGIKKDFEEPGFLAPTGLFLGGEKYMVIQGEQGAVIRGKKGPGGVTIKKTNQALVFGFYDEPMTGGQCNLVVERLGDYLIESEL,soluble
17,MVFKMMYSEAILDYANSKKFRGKLDDATVIEEGKNISCGDEITLYLKVEDGVVKDAKFEGMGCVISQASASLMLERIIGERVEEIFSLIEEAEKMSRGENFDEGKLKNVTLMSDIKNYPARVKCFILAWKTLKEALKKISRP,soluble
18,MGSSHHHHHHDYDIPTTENLYFQGHMKVKILVDSTADVPFSWMEKYDIDSIPLYVVWEDGRSEPDEREPEEIMNFYKRIREAGSVPKTSQPSVEDFKKRYLKYKEEDYDVVLVLTLSSKLSGTYNSAVLASKEVDIPVYVVDTLLASGAIPLPARVAREMLENGATIEEVLKKLDERMKNKDFKAIFYVSNFDYLVKGGRVSKFQGFVGNLLKIRVCLHIENGELIPYRKVRGDKKAIEALIEKLREDTPEGSKLRVIGVHADNEAGVVELLNTLRKSYEVVDEIISPMGKVITTHVGPGTVGFGIEVLERKR,soluble
